According to US20130102527A1:
pIC50: −log10 of the molar value. Values belong to the substance of their own block, whether it stands above or below them.

Key:
[1] = target: trypsin-like site (β2 subunit) of 26S proteasomes purified from rabbit muscle (rabbit) (UniProt G1SWK8); test: cell-based or functional assay
[2] = target: chymotrypsin-like site (β5 subunit) of 26S proteasomes purified from rabbit muscle (rabbit) (UniProt G1T4Q9); test: cell-based or functional assay
[3] = target: caspase-like site (β1 subunit) of yeast 20S proteasome (S. cerevisiae) (UniProt P38624); test: cell-based or functional assay
caspase-like site (β1 subunit) of yeast 20S proteasome (S. cerevisiae), sequence (P38624 20-215): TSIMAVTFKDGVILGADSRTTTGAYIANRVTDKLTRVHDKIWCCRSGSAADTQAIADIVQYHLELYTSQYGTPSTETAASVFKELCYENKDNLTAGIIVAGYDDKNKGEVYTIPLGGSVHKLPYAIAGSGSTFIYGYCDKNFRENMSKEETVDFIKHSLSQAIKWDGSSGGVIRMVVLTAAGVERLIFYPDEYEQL

[4] = target: proteasome β2 subunit (trypsin-like site) in human cells and cell extracts (human) (UniProt Q99436); test: competition with activity-based probe in living HEK-293 cells, 4 h; Tr-L site
proteasome β2 subunit (trypsin-like site) in human cells and cell extracts (human), sequence (Q99436 44-277): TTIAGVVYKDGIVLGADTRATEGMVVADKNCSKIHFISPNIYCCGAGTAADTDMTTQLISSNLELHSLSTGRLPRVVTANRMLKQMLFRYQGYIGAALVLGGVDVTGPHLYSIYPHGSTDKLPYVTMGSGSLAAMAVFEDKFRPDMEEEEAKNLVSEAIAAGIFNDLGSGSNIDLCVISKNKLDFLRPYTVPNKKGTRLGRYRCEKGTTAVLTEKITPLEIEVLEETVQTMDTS

[5] = target: proteasome β5 subunit (chymotrypsin-like site) in human cells and cell extracts (human) (UniProt P28074); test: competition with activity-based probe in living HEK-293 cells, 4 h; Chym-L site
proteasome β5 subunit (chymotrypsin-like site) in human cells and cell extracts (human), sequence (P28074 60-263): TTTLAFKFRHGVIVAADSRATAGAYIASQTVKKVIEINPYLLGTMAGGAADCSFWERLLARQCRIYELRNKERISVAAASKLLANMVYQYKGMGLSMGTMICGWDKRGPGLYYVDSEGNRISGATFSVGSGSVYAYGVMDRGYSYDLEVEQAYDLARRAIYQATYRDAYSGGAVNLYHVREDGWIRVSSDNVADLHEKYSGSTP

[6] = target: proteasome β2 subunit (trypsin-like site) in human cells and cell extracts (human) (UniProt Q99436); test: cell-based or functional assay
[7] = target: proteasome β5 subunit (chymotrypsin-like site) in human cells and cell extracts (human) (UniProt P28074); test: cell-based or functional assay
[8] = target: caspase-like site (β1 subunit) of 26S proteasomes purified from rabbit muscle (rabbit); test: cell-based or functional assay
[9] = target: proteasome β1 subunit (caspase-like site) in human cells and cell extracts (human) (UniProt P28072); test: cell-based or functional assay
proteasome β1 subunit (caspase-like site) in human cells and cell extracts (human), sequence (P28072 35-239): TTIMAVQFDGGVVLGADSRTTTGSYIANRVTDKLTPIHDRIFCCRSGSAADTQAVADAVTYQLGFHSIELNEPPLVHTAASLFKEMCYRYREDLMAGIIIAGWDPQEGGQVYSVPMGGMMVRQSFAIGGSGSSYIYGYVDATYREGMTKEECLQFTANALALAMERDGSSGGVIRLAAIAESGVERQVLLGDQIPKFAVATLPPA

trypsin-like site (β2 subunit) of 26S proteasomes purified from rabbit muscle (rabbit), sequence (G1SWK8 entry or part of it): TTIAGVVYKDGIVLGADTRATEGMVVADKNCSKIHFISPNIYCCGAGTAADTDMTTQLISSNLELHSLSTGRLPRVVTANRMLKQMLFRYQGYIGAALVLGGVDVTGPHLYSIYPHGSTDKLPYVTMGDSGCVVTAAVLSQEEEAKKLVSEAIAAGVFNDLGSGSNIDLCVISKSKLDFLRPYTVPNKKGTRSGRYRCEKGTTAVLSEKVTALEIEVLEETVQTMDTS
chymotrypsin-like site (β5 subunit) of 26S proteasomes purified from rabbit muscle (rabbit), sequence (G1T4Q9 entry or part of it): as the sequence (P28074 60-263) above, with E197D counted along it

IC50 (µM) for sites: Tr-L [1]: 0.0066 µM
IC50 (µM) for sites: Chym-L [2]: 3.9 µM
inhibition of caspase-like sites of yeast 20S proteasome [3]: > 200 µM
pIC50 [4]: 4.30
pIC50 [5]: < 4.30
Substance: N3-Phe-Phe(4-CH2NH2)-Leu-Phe(4-CH2NH2)-VS (52) (peptide)

IC50 (µM) for sites: Tr-L; NCI-H929 cells, 6 h, PROTEASOMEGLO [6]: 0.11 µM
IC50 (µM) for sites: Tr-L; RPMI-8226 cells, 6 h, PROTEASOMEGLO [6]: 0.58 µM
IC50 (µM) for sites: Chym-L; NCI-H929 cells, 6 h, PROTEASOMEGLO [7]: 3.6 µM
IC50 (µM) for sites: Chym-L; RPMI-8226 cells, 6 h, PROTEASOMEGLO [7]: 7.2 µM
IC50 (µM) for sites: Tr-L [1]: 0.03 µM
IC50 (µM) for sites: Casp-L [8]: 30 µM
IC50 (µM) for sites: Chym-L [2]: 3.4 µM
IC50 (µM) for sites: Casp-L; NCI-H929 cells, 6 h, PROTEASOMEGLO [9]: 22 µM
IC50 (µM) for sites: Casp-L; RPMI-8226 cells, 6 h, PROTEASOMEGLO [9]: > 30 µM
pIC50 [4]: 5.00
pIC50 [5]: < 4.30
Substance: N3-Phe-Phe(4-NH2.TFA)-Leu-Phe(4-CH2NH2.TFA)-VS (51) (peptide)

IC50 (µM) for sites: Tr-L; NCI-H929 cells, 6 h, PROTEASOMEGLO [6]: 0.9 µM
IC50 (µM) for sites: Tr-L; RPMI-8226 cells, 6 h, PROTEASOMEGLO [6]: 24 µM
inhibition of the trypsin-like sites at 3 µM NC-022 within 4-6 hours, NCI-H929 cells [6]: 90%
inhibition of trypsin-like activity 5 hours after NC-022 addition, NCI-H929 and KMS-12-BM cells [6]: > 90%
inhibition of trypsin-like activity after a 6-hour incubation, MM cell lines [6]: > 90%
Substance: NC-022 (HMB-Val-Ser-Arg-ek) (peptide)

Inhibition of active sites (% control): Trypsin-like sites, 1 h; KMS-12-BM, 11 nM carfilzomib [6]: -3%
Inhibition of active sites (% control): Trypsin-like sites, 1 h; KMS-12-BM, 33 nM carfilzomib [6]: 0%
Inhibition of active sites (% control): Trypsin-like sites, 1 h; KMS-12-BM, 100 nM carfilzomib [6]: 18%
Inhibition of active sites (% control): Trypsin-like sites, 1 h; KMS-12-BM, 300 nM carfilzomib [6]: 49%
Inhibition of active sites (% control): Trypsin-like sites, 1 h; KMS-12-BM, 900 nM carfilzomib [6]: 75%
Inhibition of active sites (% control): Trypsin-like sites, 1 h; NCI-H929, 3.7 nM carfilzomib [6]: -7%
Inhibition of active sites (% control): Trypsin-like sites, 1 h; NCI-H929, 11 nM carfilzomib [6]: 0%
Inhibition of active sites (% control): Trypsin-like sites, 1 h; NCI-H929, 33 nM carfilzomib [6]: 17%
Inhibition of active sites (% control): Trypsin-like sites, 6 h -NC-022; KMS-12-BM, 11 nM carfilzomib [6]: 5%
Inhibition of active sites (% control): Trypsin-like sites, 6 h -NC-022; KMS-12-BM, 33 nM carfilzomib [6]: 45%
Inhibition of active sites (% control): Trypsin-like sites, 6 h -NC-022; KMS-12-BM, 100 nM carfilzomib [6]: 62%
Inhibition of active sites (% control): Trypsin-like sites, 6 h -NC-022; KMS-12-BM, 300 nM carfilzomib [6]: 69%
Inhibition of active sites (% control): Trypsin-like sites, 6 h -NC-022; KMS-12-BM, 900 nM carfilzomib [6]: 72%
Inhibition of active sites (% control): Trypsin-like sites, 6 h -NC-022; NCI-H929, 3.7 nM carfilzomib [6]: 3%
Inhibition of active sites (% control): Trypsin-like sites, 6 h -NC-022; NCI-H929, 11 nM carfilzomib [6]: 39%
Inhibition of active sites (% control): Trypsin-like sites, 6 h -NC-022; NCI-H929, 33 nM carfilzomib [6]: 46%
Inhibition of active sites (% control): Chymotrypsin-like sites, 1 h; KMS-12-BM, 11 nM carfilzomib [7]: 75%
Inhibition of active sites (% control): Chymotrypsin-like sites, 1 h; KMS-12-BM, 33 nM carfilzomib [7]: 90%
Inhibition of active sites (% control): Chymotrypsin-like sites, 1 h; KMS-12-BM, 100 nM carfilzomib [7]: 95%
Inhibition of active sites (% control): Chymotrypsin-like sites, 1 h; KMS-12-BM, 300 nM carfilzomib [7]: 97%
Inhibition of active sites (% control): Chymotrypsin-like sites, 1 h; KMS-12-BM, 900 nM carfilzomib [7]: 98%
Inhibition of active sites (% control): Chymotrypsin-like sites, 1 h; NCI-H929, 3.7 nM carfilzomib [7]: 14%
Inhibition of active sites (% control): Chymotrypsin-like sites, 1 h; NCI-H929, 11 nM carfilzomib [7]: 39%
Inhibition of active sites (% control): Chymotrypsin-like sites, 1 h; NCI-H929, 33 nM carfilzomib [7]: 75%
Inhibition of active sites (% control): Chymotrypsin-like sites, 6 h -NC-022; KMS-12-BM, 11 nM carfilzomib [7]: 67%
Inhibition of active sites (% control): Chymotrypsin-like sites, 6 h -NC-022; KMS-12-BM, 33 nM carfilzomib [7]: 97%
Inhibition of active sites (% control): Chymotrypsin-like sites, 6 h -NC-022; KMS-12-BM, 100 nM carfilzomib [7]: 97%
Inhibition of active sites (% control): Chymotrypsin-like sites, 6 h -NC-022; KMS-12-BM, 300 nM carfilzomib [7]: 97%
Inhibition of active sites (% control): Chymotrypsin-like sites, 6 h -NC-022; KMS-12-BM, 900 nM carfilzomib [7]: 97%
Inhibition of active sites (% control): Chymotrypsin-like sites, 6 h -NC-022; NCI-H929, 3.7 nM carfilzomib [7]: 65.5%
Inhibition of active sites (% control): Chymotrypsin-like sites, 6 h -NC-022; NCI-H929, 11 nM carfilzomib [7]: 89%
Inhibition of active sites (% control): Chymotrypsin-like sites, 6 h -NC-022; NCI-H929, 33 nM carfilzomib [7]: 95%
Substance: carfilzomib (peptide)
